Test results taken from patent US20260242419A1, “A CYCLIC PEPTIDE FOR TRAPPING INTERLEUKIN-1 BETA” (Merck Sharp & Dohme LLC, priority 2023, published 2026).
Starred links: 1 amine or outer side, 2 acyl side, 3 side chain; linkers in the order of their positions; H or OH if unused. Non-standard residues stand in square brackets, D forms with d. dProc4CH21Naph4F = (2R,4R)-4-[(4-fluoro-1-naphthyl)methyl]pyrrolidine-2-carboxylic acid, O=C([C@H]1C[C@@H](Cc2ccc(F)c3ccccc23)CN1[*:1])[*:2]; Bip4CONMe2 = (2S)-2-amino-3-[4-[4-(dimethylcarbamoyl)phenyl]phenyl]propanoic acid, CN(C)C(=O)c1ccc(-c2ccc(C[C@H](N[*:1])C(=O)[*:2])cc2)cc1; dProc3Bn4Cl = (2R,3S)-3-[(4-chlorophenyl)methyl]pyrrolidine-2-carboxylic acid, O=C([C@H]1[C@@H](Cc2ccc(Cl)cc2)CCN1[*:1])[*:2]; dProc4Bn4Cl = (2R,4R)-4-[(4-chlorophenyl)methyl]pyrrolidine-2-carboxylic acid, O=C([C@H]1C[C@@H](Cc2ccc(Cl)cc2)CN1[*:1])[*:2]; TyrEtNAc = (2S)-3-[4-(2-acetamidoethoxy)phenyl]-2-amino-propanoic acid, CC(=O)NCCOc1ccc(C[C@H](N[*:1])C(=O)[*:2])cc1; dProc3CH24Pal = (2R,3S)-3-(4-pyridylmethyl)pyrrolidine-2-carboxylic acid, O=C([C@H]1[C@@H](Cc2ccncc2)CCN1[*:1])[*:2]; 4PyrimAla = (2S)-2-amino-3-pyrimidin-4-yl-propanoic acid, O=C([C@H](Cc1ccncn1)N[*:1])[*:2]; Phe4pcCCA = (1R,4s)-4-(4-((S)-2-amino-2-carboxyethyl)phenyl)cyclohexane-1-carboxylic acid; Phe(4-(5-CO2H-2-pyrimidyl)) = N[C@@H](Cc1ccc(-c2ncc(C(=O)O)cn2)cc1)C(=O)O; Phe(4-(4-Ac-piperazinyl)) = CC(=O)N1CCN(c2ccc(C[C@H](N)C(=O)O)cc2)CC1; dPro(4R-(4-pyridylmethyl)) = O=C(O)[C@H]1C[C@@H](Cc2ccncc2)CN1; Trp(βS-Me,4-F) = C[C@@H](c1c[nH]c2cccc(F)c12)[C@H](N)C(=O)O; Bip(4'-CONH2) = NC(=O)c1ccc(-c2ccc(C[C@H](N)C(=O)O)cc2)cc1; Bip(4'-COOH) = N[C@@H](Cc1ccc(-c2ccc(C(=O)O)cc2)cc1)C(=O)O; Ala(1-bicyclo(1.1.1)pentyl) = N[C@@H](CC12CC(C1)C2)C(=O)O; dPro(4R-Bzl(4-F)) = O=C(O)[C@H]1C[C@@H](Cc2ccc(F)cc2)CN1; dPro(3S-(4-F-Bn)) = O=C(O)[C@@H]1NCC[C@@H]1Cc1ccc(F)cc1; Bip(4'-Cl) = N[C@@H](Cc1ccc(-c2ccc(Cl)cc2)cc1)C(=O)O; Ala(pyrimidin-5-yl) = N[C@@H](Cc1cncnc1)C(=O)O; Phe(4-COOH) = N[C@@H](Cc1ccc(C(=O)O)cc1)C(=O)O; Bip = N[C@@H](Cc1ccc(-c2ccccc2)cc1)C(=O)O; Pro(cis-4-F) = O=C(O)[C@@H]1C[C@H](F)CN1; Ala(4-THP) = N[C@@H](CC1CCOCC1)C(=O)O; d(αMeD) = C[C@@](N)(CC(=O)O)C(=O)O; 4Pal = N[C@@H](Cc1ccncc1)C(=O)O; aThr = C[C@H](O)[C@H](N)C(=O)O; d(αMeS) = C[C@@](N)(CO)C(=O)O; Cba = N[C@@H](CC1CCC1)C(=O)O; Dab = NCC[C@H](N)C(=O)O; Aib = CC(C)(N)C(=O)O; Sar = CNCC(=O)O

molecular target: Recombinant human IL-1β (BioLegend 579404) (human, UniProt P01584 117-269); assay: cell-based or functional assay

Point of comparison: cyclo([Bip][Ala(1-bicyclo(1.1.1)pentyl)][Phe(4-COOH)]G[Pro(cis-4-F)][Trp(βS-Me,4-F)][Aib]SW[d(αMeD)][Ala(pyrimidin-5-yl)]Q[Dab]G[dPro(4R-(4-pyridylmethyl))]) (ring closure inferred) [SEQ ID NO 343], “MRC5 IC50” value 0.026 nM. Against it:
- cyclo([Bip(4'-COOH)][4Pal][Phe(4-COOH)]G[Pro(cis-4-F)][Trp(βS-Me,4-F)][Aib]SW[Aib][Ala(pyrimidin-5-yl)]Q[Dab]G[dProc3CH24Pal]) (ring closure inferred) [SEQ ID NO 326] — 2.4-fold lower, 0.011 nM
- cyclo([Bip(4'-COOH)][4Pal][Phe(4-COOH)]G[Pro(cis-4-F)][Trp(βS-Me,4-F)][Aib]SW[d(αMeD)][Ala(pyrimidin-5-yl)]Q[Dab]G[dProc4CH21Naph4F]) (ring closure inferred) [SEQ ID NO 327] — 1.6-fold lower, 0.016 nM
- cyclo([Bip(4'-COOH)][4Pal][Phe(4-COOH)]G[Pro(cis-4-F)][Trp(βS-Me,4-F)][Aib]SW[d(αMeD)][Ala(pyrimidin-5-yl)]Q[Dab]G[dProc3CH24Pal]) (ring closure inferred) [SEQ ID NO 328] — 3.2-fold lower, 0.008 nM
- cyclo([Bip(4'-COOH)][4Pal][Phe(4-COOH)]G[Pro(cis-4-F)][Trp(βS-Me,4-F)][Aib]SW[d(αMeD)][Ala(pyrimidin-5-yl)]Q[Dab]G[dProc4Bn4Cl]) (ring closure inferred) [SEQ ID NO 329] — 2.9-fold lower, 0.009 nM
- cyclo([Bip(4'-COOH)][4Pal][Phe(4-COOH)]G[Pro(cis-4-F)][Trp(βS-Me,4-F)][Aib]SW[d(αMeD)][Ala(pyrimidin-5-yl)]Q[Dab]G[dProc3Bn4Cl]) (ring closure inferred) [SEQ ID NO 330] — 3.2-fold lower, 0.008 nM
- cyclo([Bip(4'-COOH)][4Pal][Phe(4-COOH)]G[Pro(cis-4-F)][Trp(βS-Me,4-F)][Aib]SW[d(αMeD)][Ala(pyrimidin-5-yl)]Q[Dab]G[dPro(3S-(4-F-Bn))]) (ring closure inferred) [SEQ ID NO 331] — 2.4-fold lower, 0.011 nM
- cyclo([Bip(4'-COOH)][4Pal][Phe(4-COOH)]G[Pro(cis-4-F)][Trp(βS-Me,4-F)][Aib]SW[d(αMeD)][4PyrimAla]Q[Dab]G[dPro(4R-Bzl(4-F))]) (ring closure inferred) [SEQ ID NO 332] — 2-fold lower, 0.013 nM
- cyclo([Bip][4Pal][Phe(4-COOH)]G[Pro(cis-4-F)][Trp(βS-Me,4-F)][Aib]SW[d(αMeD)][Ala(pyrimidin-5-yl)]Q[Dab]G[dPro(4R-(4-pyridylmethyl))]) (ring closure inferred) [SEQ ID NO 333] — within 1.5-fold, 0.022 nM
- cyclo([Phe4pcCCA][Ala(1-bicyclo(1.1.1)pentyl)][Phe(4-COOH)]G[Pro(cis-4-F)][Trp(βS-Me,4-F)][Aib]SW[d(αMeD)][aThr]Q[Dab]G[dPro(4R-(4-pyridylmethyl))]) (ring closure inferred) [SEQ ID NO 334] — within 1.5-fold, 0.022 nM
- cyclo([Phe4pcCCA][Ala(1-bicyclo(1.1.1)pentyl)][Phe(4-COOH)]G[Pro(cis-4-F)][Trp(βS-Me,4-F)][Aib]SW[d(αMeD)][Ala(pyrimidin-5-yl)]Q[Dab]G[dPro(4R-(4-pyridylmethyl))]) (ring closure inferred) [SEQ ID NO 335] — within 1.5-fold, 0.022 nM
- cyclo([TyrEtNAc][4Pal][Phe(4-COOH)]G[Pro(cis-4-F)][Trp(βS-Me,4-F)][Aib]EW[Aib]FQ[Dab]G[dPro(4R-(4-pyridylmethyl))]) (ring closure inferred) [SEQ ID NO 336] — within 1.5-fold, 0.023 nM
- cyclo([Bip(4'-COOH)][4Pal][Phe(4-COOH)]G[Pro(cis-4-F)][Trp(βS-Me,4-F)][Aib]SW[d(αMeD)][aThr]Q[Dab][Sar][dPro(4R-(4-pyridylmethyl))]) (ring closure inferred) [SEQ ID NO 337] — within 1.5-fold, 0.022 nM
- cyclo([Bip4CONMe2][4Pal][Phe(4-COOH)]G[Pro(cis-4-F)][Trp(βS-Me,4-F)][Aib]SW[d(αMeS)][Ala(pyrimidin-5-yl)]Q[Dab]G[dPro(4R-(4-pyridylmethyl))]) (ring closure inferred) [SEQ ID NO 338] — within 1.5-fold, 0.018 nM
- cyclo([Bip(4'-CONH2)][4Pal][Phe(4-COOH)]G[Pro(cis-4-F)][Trp(βS-Me,4-F)][Aib]SW[d(αMeS)][Ala(pyrimidin-5-yl)]Q[Dab]G[dPro(4R-(4-pyridylmethyl))]) (ring closure inferred) [SEQ ID NO 339] — within 1.5-fold, 0.024 nM
- cyclo([Bip][4Pal][Phe(4-COOH)]G[Pro(cis-4-F)][Trp(βS-Me,4-F)][Aib]SW[d(αMeS)][Ala(pyrimidin-5-yl)]Q[Dab]G[dPro(4R-(4-pyridylmethyl))]) (ring closure inferred) [SEQ ID NO 340] — within 1.5-fold, 0.021 nM
- cyclo([Bip4CONMe2][Ala(1-bicyclo(1.1.1)pentyl)][Phe(4-COOH)]G[Pro(cis-4-F)][Trp(βS-Me,4-F)][Aib]SW[d(αMeD)][Ala(pyrimidin-5-yl)]Q[Dab]G[dPro(4R-(4-pyridylmethyl))]) (ring closure inferred) [SEQ ID NO 341] — within 1.5-fold, 0.024 nM
- cyclo([Bip(4'-CONH2)][Ala(1-bicyclo(1.1.1)pentyl)][Phe(4-COOH)]G[Pro(cis-4-F)][Trp(βS-Me,4-F)][Aib]SW[d(αMeD)][Ala(pyrimidin-5-yl)]Q[Dab]G[dPro(4R-(4-pyridylmethyl))]) (ring closure inferred) [SEQ ID NO 342] — within 1.5-fold, 0.022 nM
- cyclo([Bip(4'-Cl)][4Pal][Phe(4-COOH)]G[Pro(cis-4-F)][Trp(βS-Me,4-F)][Aib]SW[d(αMeD)][Ala(pyrimidin-5-yl)]Q[Dab]G[dPro(4R-(4-pyridylmethyl))]) (ring closure inferred) [SEQ ID NO 344] — within 1.5-fold, 0.022 nM
- cyclo([Bip(4'-COOH)][4Pal][Phe(4-COOH)]G[Pro(cis-4-F)][Trp(βS-Me,4-F)][Aib]EW[Aib][4PyrimAla]Q[Dab]G[dPro(4R-Bzl(4-F))]) (ring closure inferred) [SEQ ID NO 345] — 2.2-fold lower, 0.012 nM
- cyclo([Bip(4'-COOH)][4Pal][Phe(4-COOH)]G[Pro(cis-4-F)][Trp(βS-Me,4-F)][Aib]EW[Aib][Ala(pyrimidin-5-yl)]Q[Dab]G[dPro(3S-(4-F-Bn))]) (ring closure inferred) [SEQ ID NO 346] — 2.6-fold lower, 0.01 nM
- cyclo([Bip(4'-COOH)][4Pal][Phe(4-COOH)]G[Pro(cis-4-F)][Trp(βS-Me,4-F)][Aib]SW[d(αMeS)]LQ[Dab]G[dPro(4R-(4-pyridylmethyl))]) (ring closure inferred) [SEQ ID NO 347] — within 1.5-fold, 0.025 nM
- cyclo([Bip(4'-COOH)][Ala(1-bicyclo(1.1.1)pentyl)][Phe(4-COOH)]G[Pro(cis-4-F)][Trp(βS-Me,4-F)][Aib]SW[d(αMeD)][Cba]Q[Dab]G[dPro(4R-(4-pyridylmethyl))]) (ring closure inferred) [SEQ ID NO 348] — within 1.5-fold, 0.018 nM
- cyclo([Bip(4'-COOH)][Ala(1-bicyclo(1.1.1)pentyl)][Phe(4-COOH)]G[Pro(cis-4-F)][Trp(βS-Me,4-F)][Aib]SW[d(αMeD)]LQ[Dab]G[dPro(4R-(4-pyridylmethyl))]) (ring closure inferred) [SEQ ID NO 349] — 1.5-fold lower, 0.017 nM
- cyclo([Phe(4-(4-Ac-piperazinyl))][4Pal][Phe(4-COOH)]G[Pro(cis-4-F)][Trp(βS-Me,4-F)][Aib]SW[d(αMeS)][Ala(pyrimidin-5-yl)]Q[Dab]G[dPro(4R-(4-pyridylmethyl))]) (ring closure inferred) [SEQ ID NO 350] — within 1.5-fold, 0.02 nM
- cyclo([Phe(4-(5-CO2H-2-pyrimidyl))][4Pal][Phe(4-COOH)]G[Pro(cis-4-F)][Trp(βS-Me,4-F)][Aib]SW[d(αMeD)][Ala(4-THP)]Q[Dab]G[dPro(4R-(4-pyridylmethyl))]) (ring closure inferred) [SEQ ID NO 351] — 1.6-fold lower, 0.016 nM
- cyclo([Bip(4'-COOH)][4Pal][Phe(4-COOH)]G[Pro(cis-4-F)][Trp(βS-Me,4-F)][Aib][aThr]W[d(αMeS)][aThr]Q[Dab]G[dPro(4R-(4-pyridylmethyl))]) (ring closure inferred) [SEQ ID NO 352] — within 1.5-fold, 0.023 nM
- cyclo([Bip(4'-COOH)][4Pal][Phe(4-COOH)]G[Pro(cis-4-F)][Trp(βS-Me,4-F)][Aib][aThr]W[d(αMeD)][Ala(4-THP)]Q[Dab]G[dPro(4R-(4-pyridylmethyl))]) (ring closure inferred) [SEQ ID NO 353] — 1.5-fold lower, 0.017 nM
